Laboratory results reported in patent US20250136699A1 (JIANGSU BIOJETAY BIOTECHNOLOGY, published 2025).
Where a chain is given by its changes, count along the chain named.

T1: musculus FcRn-alpha (mouse, UniProt Q61559 22-297, limits assumed)
T1 construct: Alpha chain alone; also called mFcRn; mouse FcRn; not shown: His tag and Avi tag
T1 sequence: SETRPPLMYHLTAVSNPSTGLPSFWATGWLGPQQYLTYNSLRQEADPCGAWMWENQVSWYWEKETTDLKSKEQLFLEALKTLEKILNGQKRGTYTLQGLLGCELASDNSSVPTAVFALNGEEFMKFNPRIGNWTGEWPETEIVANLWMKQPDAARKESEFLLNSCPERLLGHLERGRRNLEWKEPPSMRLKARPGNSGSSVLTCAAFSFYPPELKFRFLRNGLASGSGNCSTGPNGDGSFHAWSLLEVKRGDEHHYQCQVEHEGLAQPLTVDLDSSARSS

T2: Rattus norvegicus FcRn-alpha (rat, UniProt P13599 23-298)
T2 construct: Alpha chain alone; also called rFcRn; rat FcRn; not shown: His tag and Avi tag
T2 sequence: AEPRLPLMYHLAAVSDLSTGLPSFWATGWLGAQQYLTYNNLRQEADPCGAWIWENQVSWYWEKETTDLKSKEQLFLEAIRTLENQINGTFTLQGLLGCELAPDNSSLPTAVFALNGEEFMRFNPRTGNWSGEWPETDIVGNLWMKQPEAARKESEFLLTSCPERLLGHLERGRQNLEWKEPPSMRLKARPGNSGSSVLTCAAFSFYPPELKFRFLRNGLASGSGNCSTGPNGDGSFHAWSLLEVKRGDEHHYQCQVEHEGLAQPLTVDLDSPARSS

B1: ZLP22 (antibody, V domains shown)
VH: EVKLVESGAELARPGASVKMSCKASGYTFTSYAMHWVKQRPGQGLEWIGYINPSSGYTNYNQKFKDKATLTADKSSSTAYMQLSSLTSEDSAVYYCARKGLRYAVDYWGQGTSVTVSS
VL: DIVMTQSPSSLSVSAGEKVTMSCKSSQSLLNSGNQKNYLAWYQQKPGQPPKLLIYGASTRESGVPDRFTGSGSGTDYTLTISSVQAEDLALYYCQQHYSTPYTFGGGTKLEIK
notes: Full-length chimeric antibody; human kappa or lambda light constant domain
B2: ZLP193 (antibody, V domains shown)
VH: EVQLQESGPDLVKPSQSLSLTCTVTGYSFTSGYSWHWIRQFPGNRLEWMGYIHDSGGTNYNPSLKSRISITRDTSKNQFFLQLNSVTTEDTATYYCAREENYRYFDVWGAGTTVTVSS
VL: DIQMMQSPAIMSASPGEKVTITCSASSSVSYMHWFQQKPGTSPKLWIYSTSNLASGVPARFSGSGSGTSYSLTISRMEAEDAATYYCQQRSSYPPTFGDGTRLEIK
notes: Full-length chimeric antibody: mouse variable domains with human IgG1 or IgG4 heavy constant domain and human kappa or lambda light constant domain; also called chimeric anti-FcRn antibody ZLP193
B3: ZLP17 (antibody, V domains shown)
VH: QIQLLQSGAELARPGASVKMSCKASGYTFTSYTMHWVKQRPGQGLEWIGYINPSSGYTNYNQKFKDKATLTADKSSSTAYMQLSSLTSEGSAVYYCARSGLRRVLDYWGQGTSVTVSS
VL: ENVLTQSPAILSASPGEKVTMTCSASSSVSYMYWYQQKPGSSPRLLIYDTSNLASGVPVRFSGSGSGTSYSLTISRMEAEDAATYYCQQWSSYPRTFGGGTKLEIK
notes: Full-length chimeric antibody with human IgG1 or IgG4 heavy constant and human kappa or lambda light constant domain
B4: ZLP198 (antibody, V domains shown)
VH: EVKLMESGPDLVKPSQSLSLTCTVTGYSITSGYSWHWIRHFPGKKLEWMGYIHNSGSTNYNPSLKSRISISRETSKNQFFLQLNSVTTEDTATYYCAREGYGGYWYFDVWGAGTSVTVSS
VL: B3 VL with E1D, N2I, L11M, R44K, L45P, L46W, D49G, W90R, R95Y
notes: as for B3
B5: ZLP1-3-2F (antibody, V domains shown)
VH: QVQLQESGPGLVKPSETLSLTCAVSGYSFTSGYSWHWIRQPPGKGLEWIGYIHDSGGTNYNPSLKSRVTISRDTSKNQFSLKLSSVTAADTAVYYCAREENYRYFDVWGQGTLVTVSS
VL: EIVLTQSPATLSLSPGERATLSCSASSSVSYMHWFQQKPGQSPRLLIYSTSNLASGIPARFSGSGSGTDFTLTISSLEPEDFAVYYCQQRSSYPPTFGQGTKVEIK
B6: ZLP1-3-2 (antibody, V domains shown)
VH: B5 VH
VL: B5 VL with L46W, F70Y
notes: also called humanized version of ZLP193
B7: ZLP44 (antibody, V domains shown)
VH: EVQLQQSGPELVKPGASVKVSCKASGYIFTSYNMYWMKQSHGKSLEWIGYIDPYNGGTRYNQKFKGKATLTVDKSSSTAYMHLNSLTSEDSAVYYCAVDGYNGAMDYWGQGTSVTVSS
VL: QIVLTQSPASLAVSLGQRATISCRASESVDSYGNSFMHWYQQKPGQPPKLLIYRASNLESGIPARFSGSGSRTDFTLTINPVEADDVATYYCQQSNEDPYTFGGGTKLEIK
notes: as for B1
B8: ZLP42 (antibody, V domains shown)
VH: QVQLQQPGAELVKPGASVKLSCTASGFNIKDTYMYWVKQRPEQGLEWIGRIDPANGITKFDPKFQDKATVTADTFSNIAYLHLSSLTSEDTAVYYCTTTAVMATEAMDRWGQGTSVTVSS
VL: B7 VL
notes: Full-length chimeric antibody
B9: ZLP64 (antibody, V domains shown)
VH: B7 VH with E1Q, V2I, Q5L, R59N
VL: B7 VL with Q1D, A12T, S31R, I62V, T89S, Y100L, G104A, I110L
notes: as for B1
B10: ZLP57 (antibody, V domains shown)
VH: QVQLKESGPDLVKPSQSLSLTCTVTGYSITSGYSWHWIRQFPGNKLEWMTYIHSSGSTNYNPSLKSRISITRDTSKNQFFLQLKSVTTEDTATYYCAREVYGNYYWYFDVWGAGTTVTVSS
VL: DIVMTQSPAIMSASLGEEITLTCSASSSVSYMHWYQQKSGTSPKLLIYSTSNLASGVPARFSGSGSGTSYSLTISRMEAEDAATYYCQQRSSYPYTFGGGTKLEIK
notes: as for B3

These molecules were tested against T1, musculus FcRn-alpha (assay: ELISA: mFcRn coated, antibody titrated, goat anti-human IgG Fab-HRP, OD450).

EC50 (read off the curve) [nM]	Molecule
30	Human IgG (Jackson ImmunoResearch, cat #009-000-003) (antibody)
~20	B1
~9	B2
~30	B3
~10	B4

The molecules below were run against T3, human B2M (human, UniProt P61769 21-119, limits assumed) (assay: ELISA: human B2M coated, antibody titrated, OD450).
T3 construct: also called beta-2-microglobulin; not shown: His tag and Avi tag

Molecule	binding result
B5	no binding (tested: about 700 nM (Log[Ab] about 2.8))
B6	no binding (tested: about 700 nM (Log[Ab] about 2.8))

What follows are molecules tested against T4, human FCGRT (human, UniProt P55899 24-297, biotinylated (Avi tag) in the blocking assays) (assay: competition ELISA: human IgG coated, biotinylated human FCGRT plus antibody, SA-HRP).
T4 construct: Alpha chain alone, expressed in Expi293 cells with His and Avi tags; also called FCGRT of human FcRn protein; biotinylated human FCGRT; not shown: His tag and Avi tag
T4 sequence (P55899 24-297 limits assumed): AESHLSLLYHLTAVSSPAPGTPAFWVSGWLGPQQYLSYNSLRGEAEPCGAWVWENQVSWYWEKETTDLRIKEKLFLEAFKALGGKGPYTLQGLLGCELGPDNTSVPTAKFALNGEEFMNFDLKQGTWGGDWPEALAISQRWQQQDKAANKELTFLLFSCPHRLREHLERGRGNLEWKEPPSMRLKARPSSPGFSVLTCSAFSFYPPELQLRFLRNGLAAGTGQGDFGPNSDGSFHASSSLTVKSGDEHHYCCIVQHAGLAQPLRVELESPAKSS

IC50 [nM]	Molecule
5.77	B5
6.16	B6

What follows are molecules tested against T4, human FCGRT (assay: blocking ELISA: human IgG coated, biotinylated human FCGRT plus titrated antibody, SA-HRP, OD450; blocked ligand: human IgG).
Experimental: (§1) After removing the coating solution, the wells were blocked with a blocking buffer containing 1% BSA at room temperature for 1 hour. Plates were then washed with wash buffer. […] After incubation, 100 μL of SA-HRP (1:20,000) was added to each well and incubated for 1 hour at 37° C. The wells were washed before adding 100 μL/well of TMB and incubated for 5-10 minutes at 37° C. 2M H₂SO₄ was used to stop the reaction. […] The ELISA results (OD450) were analyzed, and the binding curves were generated by PRISM.

IC50 (read off the curve) [nM]	Molecule
~30	B1
~20	B3

Molecular target: T3, human B2M
Assay: ELISA: human B2M coated, antibody titrated, OD450
Remark: another data set of the same source
Experimental: (§2) Measurement of the binding specificity of anti-FcRn antibodies to FCGRT and B2M by EILSA: Briefly, human FCGRT or B2M was coated on a 96-well plate at 4° C. overnight, after removing the coating solution, a blocking buffer containing 1% BSA was added into the plates followed by incubation at room temperature for 1 hour to block unspecific binding. Plates were then washed with wash buffer, and serial dilutions of anti-FcRn antibodies were added to the wells and incubated at room temperature for 1 hour. […] The wells were washed before adding 100 μL/well of TMB and incubated for 5-10 minutes at 37° C. 2M H₂SO₄ was used to stop the reaction. […] The ELISA results (OD450) were analyzed, and the binding curves were generated by Graphpad PRISM.

Molecule	binding result
B1	no binding (tested: about 700 nM (Log[Ab] about 2.8))
B2	no binding (tested: about 700 nM (Log[Ab] about 2.8))
B7	no binding (tested: about 700 nM (Log[Ab] about 2.8))
B8	no binding (tested: about 700 nM (Log[Ab] about 2.8))
B9	no binding (tested: about 700 nM (Log[Ab] about 2.8))
B3	no binding (tested: about 700 nM (Log[Ab] about 2.8))
B4	no binding (tested: about 700 nM (Log[Ab] about 2.8))
B10	no binding (tested: about 700 nM (Log[Ab] about 2.8))

These molecules were tested against T4, human FCGRT (assay: ELISA: human FCGRT coated, antibody titrated, goat anti-human IgG Fab-HRP, OD450).
Experimental: as §2

EC50 (read off the curve) [nM]	Molecule
~7	B1
~1	B2
~20	B3
~20	B4

These molecules were tested against T5, Cynomolgus monkey FcRn-alpha (cynomolgus monkey, UniProt Q8SPV9 24-297, limits assumed) (assay: ELISA: cynoFcRn coated, antibody titrated, goat anti-human IgG Fab-HRP, OD450).
T5 construct: The printed entry looks like the full-length precursor (signal peptide, transmembrane and cytoplasmic parts); also called cynoFcRn; not shown: His tag and Avi tag
T5 sequence (Q8SPV9 24-297 limits assumed): as the sequence (P55899 24-297 limits assumed) above, with N39D, E44Q, G99S, S189G, S190N, L217M, S269T counted along it

EC50 (read off the curve) [nM]	Molecule
~0.8	B1
~0.3	B2
~0.1	B7
~0.08	B9
~7	B3
~6	B4

Each molecule was assayed against T6, Human recombinant FCGRT & B2M Heterodimer Protein (hFcRn) (human, UniProt P55899 24-297; P61769 21-119) (assay: ELISA, hFcRn coated at 1 ug/mL, IgG4 antibody titrated, anti-human IgG Fab-HRP).
T6 construct: Bought protein; also called human FcRn
Experimental: (§3) hFcRn binding of purified full-length chimeric antibodies: The hFcRn antigen binding ELISA was performed on the purified full-length chimeric antibodies (reformatted as IgG4). Briefly, plates were coated overnight at 4° C. with 1 μg/mL of hFcRn (cat #CT009-H08H) in PBS. After removing the coating solution, the wells were blocked by adding blocking buffer and incubated at room temperature for 1 hour. Plates were then washed 6 times with wash buffer. Serial dilutions of purified antibodies in PBS were added to individual wells followed by incubation at room temperature for 1 hour. Plates were washed 6 times with wash buffer. […] Plates were incubated at 37° C. for 1 hour, washed 6 times with wash buffer, and developed for 5-10 minutes with 50 L/well of TMB substrate, then quenched with 2M H₂SO₄. […] The ELISA results (OD450) were analyzed, and the binding curves were generated by Graphpad PRISM.

EC50 [nM]	Molecule
2.39	B1
0.439	B2
0.673	B7
0.981	B8
0.212	B9

Each molecule was assayed against T7, human FcRn (human FCGRT and B2M) on stably transfected MDCK cells (human, UniProt P55899 24-365; P61769 21-119) (assay: cell-based or functional assay).

IgG Recycle IC50 [nM]	Molecule
5.01	B1
10.1	B2
2.5	B7
10.7	B9
3.24	B3

What follows are molecules tested against T4, human FCGRT (assay: ELISA on coated human FCGRT, IgG4 antibody titrated).
Experimental: as §2

EC50 [nM]	Molecule
1.02	B5
1.5	B6

Molecular target: T4, human FCGRT
Assay: ELISA: human FCGRT coated, antibody titrated, goat anti-human IgG Fab-HRP, OD450
Remark: another data set of the same source
Experimental: as §2

EC50 (read off the curve) [nM]	Molecule
~0.1	B7
~0.2	B8
~0.3	B9

What follows are molecules tested against T5, Cynomolgus monkey FcRn-alpha (assay: ELISA on coated cynoFcRn, IgG4 antibody titrated).
Experimental: as §3
(§4) Analysis of cross-reactivity to FcRn from different species: To examine whether the anti-FcRn antibodies bind to FcRn from different species, antigen binding ELISA assays were performed as described above except that cynoFcRn, mFcRn, or rFcRn was used in the assay instead of hFcRn.

EC50 [nM]	Molecule
2.06	B5
3.12	B6

Molecular target: T4, human FCGRT
Assay: competition ELISA: human IgG coated, biotinylated human FCGRT plus antibody, SA-HRP
Remark: another data set of the same source
Experimental: as §1

IC50 [nM]	Molecule
8.7	B2
12.3	B7
10.9	B8
12.5	B9
8.88	B10

Molecular target: T7, human FcRn (human FCGRT and B2M) on …
Assay: cell-based or functional assay
Remark: another data set of the same source

IgG Recycle IC50 [nM]	Molecule
8.36	B5
4.04	B6

The molecules below were run against T2, Rattus norvegicus FcRn-alpha (assay: ELISA: rFcRn coated, antibody titrated, goat anti-human IgG Fab-HRP, OD450).
Experimental: as §3, §4

Molecule	binding result
B1	no binding (tested: about 700 nM (Log[Ab] about 2.8))
B2	no binding (tested: about 700 nM (Log[Ab] about 2.8))
B7	no binding (tested: about 700 nM (Log[Ab] about 2.8))
B8	no binding (tested: about 700 nM (Log[Ab] about 2.8))
B9	no binding (tested: about 700 nM (Log[Ab] about 2.8))

These molecules were tested against T6, Human recombinant FCGRT & B2M … (assay: ELISA on coated hFcRn, IgG4 antibody titrated).
Experimental: as §3

EC50 [nM]	Molecule
6.63	B5
2.95	B6

The molecules below were run against T6, Human recombinant FCGRT & B2M … (assay: SPR, Biacore T200, antibody (IgG4) on CM5 chip, hFcRn in solution, pH 6.0).
Experimental: The anti-FcRn antibodies were stabilized on sensor chip CM5. The affinities for hFcRn of antibodies at various concentrations were measured. […] Using the SPR technology, the association and dissociation rates were measured, and binding affinity was determined.

Kd [nM]	Molecule
0.609	B5
